The target of assay [1] is T1, Gal4 AD-mSin3A (full-length), Q60520.
T1 chain: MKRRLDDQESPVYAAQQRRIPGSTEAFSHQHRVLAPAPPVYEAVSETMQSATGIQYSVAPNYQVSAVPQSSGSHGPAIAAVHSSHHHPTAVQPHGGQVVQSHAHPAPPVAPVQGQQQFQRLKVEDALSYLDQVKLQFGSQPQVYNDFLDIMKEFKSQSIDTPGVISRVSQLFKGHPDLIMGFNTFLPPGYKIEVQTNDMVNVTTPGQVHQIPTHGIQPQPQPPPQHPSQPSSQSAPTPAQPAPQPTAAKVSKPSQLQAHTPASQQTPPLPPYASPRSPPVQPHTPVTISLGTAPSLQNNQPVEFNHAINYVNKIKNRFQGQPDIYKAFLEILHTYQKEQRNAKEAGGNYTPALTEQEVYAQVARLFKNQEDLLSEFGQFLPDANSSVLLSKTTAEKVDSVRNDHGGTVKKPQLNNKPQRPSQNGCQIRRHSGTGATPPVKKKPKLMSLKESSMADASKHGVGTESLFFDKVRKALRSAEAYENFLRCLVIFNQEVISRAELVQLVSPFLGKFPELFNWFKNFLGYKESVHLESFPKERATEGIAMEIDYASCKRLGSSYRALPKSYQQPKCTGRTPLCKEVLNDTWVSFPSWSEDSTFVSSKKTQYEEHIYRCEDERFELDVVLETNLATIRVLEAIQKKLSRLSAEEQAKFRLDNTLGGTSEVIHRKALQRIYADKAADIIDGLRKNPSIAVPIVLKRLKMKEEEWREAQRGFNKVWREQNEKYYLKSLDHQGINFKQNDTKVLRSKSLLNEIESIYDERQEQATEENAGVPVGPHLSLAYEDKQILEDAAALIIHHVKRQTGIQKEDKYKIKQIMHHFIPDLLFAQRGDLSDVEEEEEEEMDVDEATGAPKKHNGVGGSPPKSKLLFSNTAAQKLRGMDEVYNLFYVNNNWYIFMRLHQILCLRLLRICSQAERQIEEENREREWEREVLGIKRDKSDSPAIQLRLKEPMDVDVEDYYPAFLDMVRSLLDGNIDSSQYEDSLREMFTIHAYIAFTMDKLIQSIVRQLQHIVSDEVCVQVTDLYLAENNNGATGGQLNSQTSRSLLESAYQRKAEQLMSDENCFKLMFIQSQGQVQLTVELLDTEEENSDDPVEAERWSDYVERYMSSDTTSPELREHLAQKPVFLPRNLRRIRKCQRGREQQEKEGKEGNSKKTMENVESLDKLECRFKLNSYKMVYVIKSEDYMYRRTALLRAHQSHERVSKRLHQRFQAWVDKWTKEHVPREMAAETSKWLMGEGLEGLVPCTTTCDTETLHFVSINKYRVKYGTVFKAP
The assay can be described thus: yeast two-hybrid, quantitative liquid β-galactosidase assay. Conditions: chain shown with the change; yeast strain L40; parent: est. 60000; read off a plot.

For the next assay, the target named is T2, Gal4 AD-FAF1 WT, Q9UNN5.
T2 chain: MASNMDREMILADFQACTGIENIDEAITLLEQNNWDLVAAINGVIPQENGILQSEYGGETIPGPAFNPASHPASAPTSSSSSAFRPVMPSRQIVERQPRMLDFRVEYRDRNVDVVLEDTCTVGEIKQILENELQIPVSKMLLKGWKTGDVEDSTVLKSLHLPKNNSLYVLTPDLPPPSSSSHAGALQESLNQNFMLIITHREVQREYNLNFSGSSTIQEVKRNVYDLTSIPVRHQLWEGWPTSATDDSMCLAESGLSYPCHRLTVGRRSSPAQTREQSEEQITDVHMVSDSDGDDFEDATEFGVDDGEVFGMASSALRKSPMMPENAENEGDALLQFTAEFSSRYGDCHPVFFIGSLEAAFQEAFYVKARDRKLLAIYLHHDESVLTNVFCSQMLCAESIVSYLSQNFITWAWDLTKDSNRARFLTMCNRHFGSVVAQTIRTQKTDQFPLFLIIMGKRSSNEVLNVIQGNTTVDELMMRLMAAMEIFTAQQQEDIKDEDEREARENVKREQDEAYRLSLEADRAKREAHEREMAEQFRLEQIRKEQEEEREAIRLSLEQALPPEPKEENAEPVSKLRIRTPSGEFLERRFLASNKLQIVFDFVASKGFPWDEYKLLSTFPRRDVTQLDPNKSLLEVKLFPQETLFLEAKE
The assay is described as above. Conditions: chain shown with the change; yeast strain L40; parent: est. 1500000; read off a plot.

B1: LexA-SAP130 C-terminal region (amino acids 760-1048) WT, Q9H0E3 K794A; K878A; K932A (protein)
chain: APPPSVTVGGSLSSVLGPPVPEIKVAEEVEPMDIMRPVSAVPPLATNTVSPSLALLANNLSMPTSDLPPGASPRKKPRKQQHVISTEEGDMMETNSTDDEKSTAKSLLVAAEKRKSPPKEYIDEEGVRYVPVRPRPPITLLRHYRNPWKAAYHHFQRYSDVRVAEEKKAMLQEIANQKGVSCRAQGWKVHLCAAQLLQLTNLEHDVYERLTNLQEGIIPKKKAATDDDLHRINELIQGNMQRCKLVMDQISEARDSMLKVLDHKDRVLKLLNKNGTVKKVSKLKRKEKV
For the molecule B1, the response in assay [1] is 190000; with Gal4 AD-FAF1 WT, Q9UNN5, 43000.
